Consider 6 sequences from the Immune Epitope Database (IEDB).

Assay [1] deals with HLA-A*01:01. Kind of assay: IEDB peptide-MHC binding, purified MHC/direct/fluorescence; filed as Kd, often an IC50 or EC50 that approximates it; ≥ and ≤ were set here for values at or beyond the usual limits of such assays.
Another assay deals with HLA-A*02:01. The description is as above.
Another assay has as its target HLA-A*03:01. The description is as above.
Assay [2] concerns the target HLA-A*11:01. Described as above.
The next assay has as its target HLA-A*26:01. Described as above.
In assay [3] the target is HLA-A*31:01. The description is as above.
In assay [4] the target is HLA-A*69:01. Described as above.
The target in a further assay is HLA-B*07:02. Described as above.
The target of assay [5] is HLA-B*08:01. The assay is described as above.
In the next assay the target is HLA-B*15:01. The assay is described as above.
A further assay addresses HLA-B*15:02. Described as above.
Another assay addresses HLA-B*27:05. Described as above.
Assay [6] has as its target HLA-B*35:01. Described as above.
A further assay has as its target HLA-B*40:01. The assay is described as above.
A further assay concerns the target HLA-B*44:02. The assay is described as above.
For another assay, the target named is HLA-B*46:01. The assay is described as above.
The target in assay [7] is HLA-B*58:01. The description is as above.
The target of assay [8] is HLA-A*01:01. Kind of assay: IEDB peptide-MHC binding, purified MHC/competitive/fluorescence; filed as Kd, often an IC50 or EC50 that approximates it; ≥ and ≤ were set here for values at or beyond the usual limits of such assays. The following applies: source organism: Human immunodeficiency virus 1.
The next assay addresses HLA-A*02:03. Described as above. The following applies: source organism: Human immunodeficiency virus 1.
The next assay concerns the target HLA-A*02:06. The description is as above. To be noted: source organism: Human immunodeficiency virus 1.
Assay [9] has as its target HLA-A*11:01. Described as above. The following applies: source organism: Human immunodeficiency virus 1.
The target of another assay is HLA-A*26:02. The assay is described as above. To be noted: source organism: Human immunodeficiency virus 1.
A further assay has as its target HLA-A*30:01. Described as above. The following applies: source organism: Human immunodeficiency virus 1.
Assay [10] has as its target HLA-A*31:01. The assay is described as above. To be noted: source organism: Human immunodeficiency virus 1.
The target of the next assay is HLA-A*68:02. The assay is described as above. The following applies: source organism: Human immunodeficiency virus 1.
Assay [11] concerns the target HLA-A*69:01. Described as above. The following applies: source organism: Human immunodeficiency virus 1.
The target in assay [12] is HLA-B*08:01. The description is as above. The following applies: source organism: Human immunodeficiency virus 1.
Another assay concerns the target HLA-B*15:17. The description is as above. The following applies: source organism: Human immunodeficiency virus 1.
In assay [13] the target is HLA-B*18:01. The description is as above. The following applies: source organism: Human immunodeficiency virus 1.
The target of assay [14] is HLA-B*35:01. The description is as above. To be noted: source organism: Human immunodeficiency virus 1.
In a further assay the target is HLA-B*39:01. Described as above. To be noted: source organism: Human immunodeficiency virus 1.
For the next assay, the target named is HLA-B*57:01. The description is as above. To be noted: source organism: Human immunodeficiency virus 1.
Assay [15] has as its target HLA-B*58:01. Described as above. The following applies: source organism: Human immunodeficiency virus 1.
The next assay has as its target HLA-A*02:16. The assay is described as follows: IEDB peptide-MHC binding, purified MHC/direct/fluorescence; filed as Kd, often an IC50 or EC50 that approximates it; ≥ and ≤ were set here for values at or beyond the usual limits of such assays. The following applies: source organism: Mycobacterium tuberculosis.
Another assay concerns the target HLA-A*02:50. Kind of assay: IEDB peptide-MHC binding, purified MHC/competitive/fluorescence; filed as Kd, often an IC50 or EC50 that approximates it; ≥ and ≤ were set here for values at or beyond the usual limits of such assays.
A further assay concerns the target HLA-A*24:02. The assay is described as follows: IEDB peptide-MHC binding, purified MHC/direct/fluorescence; filed as Kd, often an IC50 or EC50 that approximates it; ≥ and ≤ were set here for values at or beyond the usual limits of such assays. To be noted: source organism: Escherichia coli O157:H7.
Assay [16] concerns the target HLA-B*18:01. The assay is described as above. To be noted: source organism: Escherichia coli O157:H7.
The next assay addresses HLA-C*03:03. Described as above. The following applies: source organism: Escherichia coli O157:H7 str. EDL933.
[17] abbreviates: source organism: Vibrio vulnificus.
[18] abbreviates: source organism: Mycobacterium tuberculosis.
Setting [19] is: source organism: Giardia lamblia ATCC 50803.
Where [20] appears, read: source organism: Listeria monocytogenes serotype 4b str. H7858.
The mark [21] stands for this setting: source organism: Listeria monocytogenes.
Where [22] appears, read: source organism: Escherichia coli O157:H7.

In the case of IQTHCEVGY, the dissociation constant Kd with HLA-A*01:01 [1] (setting [17]), with HLA-A*02:01 (setting [17]), with HLA-A*03:01 (setting [17]), in the assay with HLA-A*11:01 [2] (setting [17]), in the assay with HLA-A*26:01 (setting [17]) and with HLA-A*31:01 [3] (setting [17]) was at least 20 µM each time. Further, the Kd in the assay with HLA-A*69:01 [4] (setting [17]) is at least 20 µM; in the assay with HLA-B*07:02 (setting [17]), at least 20 µM; with HLA-B*08:01 [5] (setting [17]), at least 20 µM; with HLA-B*15:01 (setting [17]) it was 0.285 µM; with HLA-B*15:02 (setting [17]), at least 20 µM; with HLA-B*27:05 (setting [17]), at least 20 µM. The Kd in the assay with HLA-B*35:01 [6] (setting [17]) was 0.94 µM; with HLA-B*40:01 (setting [17]), at least 20 µM; in the assay with HLA-B*44:02 (setting [17]) it was at least 20 µM; with HLA-B*46:01 (setting [17]), at least 20 µM; with HLA-B*58:01 [7] (setting [17]) it was at least 20 µM.
For the sequence KSLFNTVATLY, the Kd was 2.11 µM in the assay with HLA-A*01:01 [8]; 0.19 µM in the assay with HLA-A*02:03; 0.155 µM with HLA-A*02:06; 0.233 µM with HLA-A*11:01 [9]; at least 20 µM with HLA-A*26:02; at least 20 µM with HLA-A*30:01. The Kd was at least 20 µM with HLA-A*31:01 [10]; 3.47 µM with HLA-A*68:02; 2.84 µM with HLA-A*69:01 [11]; at least 20 µM with HLA-B*08:01 [12]; 0.0038 µM with HLA-B*15:17; 0.242 µM with HLA-B*18:01 [13]. Besides, the Kd was 2.41 µM in the assay with HLA-B*35:01 [14], at least 20 µM with HLA-B*39:01, 0.235 µM in the assay with HLA-B*57:01 and 0.0028 µM in the assay with HLA-B*58:01 [15].
As for LLLRPFWPA, the Kd with HLA-A*02:01 (setting [18]) turned out to be 0.113 µM; with HLA-A*02:16, 0.01 µM; in the assay with HLA-A*69:01 [4] (setting [18]), 0.0303 µM; with HLA-A*02:50 (setting [18]), 0.0091 µM.
Regarding LLPYPIAGC, the Kd with HLA-A*01:01 [1] (setting [19]) is at least 20 µM; in the assay with HLA-A*02:01 (setting [19]), 5.1 µM; with HLA-A*03:01 (setting [19]) it was at least 20 µM; with HLA-A*11:01 [2] (setting [19]), at least 20 µM; with HLA-A*26:01 (setting [19]), at least 20 µM; with HLA-A*31:01 [3] (setting [19]) it was at least 20 µM. Also, the Kd is 4.2 µM in the assay with HLA-A*69:01 [4] (setting [19]); at least 20 µM with HLA-B*07:02 (setting [19]); at least 20 µM in the assay with HLA-B*08:01 [5] (setting [19]); at least 20 µM with HLA-B*15:01 (setting [19]); at least 20 µM in the assay with HLA-B*27:05 (setting [19]); at least 20 µM in the assay with HLA-B*40:01 (setting [19]). Moreover, the Kd in the assay with HLA-B*44:02 (setting [19]) was at least 20 µM; with HLA-B*58:01 [7] (setting [19]), at least 20 µM; with HLA-A*02:50 (source organism: Giardia intestinalis ATCC 50581) it was 0.0235 µM.
Take LMKAPGTYH: the Kd in the assay with HLA-B*07:02 (setting [20]) was at least 20 µM; with HLA-B*15:01 (setting [21]) it was 0.0668 µM; with HLA-B*15:02 (setting [21]) it was 0.258 µM; with HLA-B*35:01 [6] (setting [20]), at least 20 µM; with HLA-B*46:01 (setting [21]), 4.83 µM.
As to YLFQWNDNV, the Kd is at least 20 µM in the assay with HLA-A*01:01 [1] (setting [22]); 0.0021 µM in the assay with HLA-A*02:01 (setting [22]); at least 20 µM in the assay with HLA-A*03:01 (setting [22]); at least 20 µM with HLA-A*11:01 [2] (setting [22]); at least 20 µM with HLA-A*24:02; 0.0036 µM with HLA-A*69:01 [4] (setting [22]). Also, the dissociation constant Kd with HLA-B*07:02 (setting [22]) is at least 20 µM; with HLA-B*15:01 (setting [22]), 1.71 µM; in the assay with HLA-B*18:01 [16], at least 20 µM; in the assay with HLA-B*27:05 (setting [22]) it was at least 20 µM; with HLA-B*40:01 (setting [22]), at least 20 µM; with HLA-B*44:02 (setting [22]), at least 20 µM. For the same sequence, the Kd is at least 20 µM with HLA-B*58:01 [7] (setting [22]), at least 20 µM in the assay with HLA-C*03:03 and at most 0.0001 µM with HLA-A*02:50 (source organism: Escherichia coli O157:H7 str. EDL933).

The Kd is a measure of binding affinity in units of concentration.
